Measurements as given in patent US6326466A, “Double-stranded RNA dependent protein kinase derived peptides to promote proliferation of cells and tissues in a controlled manner” (priority 1999, dated 2001).
Ends that are not written are not given here.

What was measured:
[1] = molecular target: T1, PKR (dsRNA-dependent protein kinase) (Oryctolagus cuniculus) (UniProt Q287T5); test: competition; conditions: unlabeled poly(I)-poly(C) 80 ug/ml as competitor to TAR RNA
T1 sequence: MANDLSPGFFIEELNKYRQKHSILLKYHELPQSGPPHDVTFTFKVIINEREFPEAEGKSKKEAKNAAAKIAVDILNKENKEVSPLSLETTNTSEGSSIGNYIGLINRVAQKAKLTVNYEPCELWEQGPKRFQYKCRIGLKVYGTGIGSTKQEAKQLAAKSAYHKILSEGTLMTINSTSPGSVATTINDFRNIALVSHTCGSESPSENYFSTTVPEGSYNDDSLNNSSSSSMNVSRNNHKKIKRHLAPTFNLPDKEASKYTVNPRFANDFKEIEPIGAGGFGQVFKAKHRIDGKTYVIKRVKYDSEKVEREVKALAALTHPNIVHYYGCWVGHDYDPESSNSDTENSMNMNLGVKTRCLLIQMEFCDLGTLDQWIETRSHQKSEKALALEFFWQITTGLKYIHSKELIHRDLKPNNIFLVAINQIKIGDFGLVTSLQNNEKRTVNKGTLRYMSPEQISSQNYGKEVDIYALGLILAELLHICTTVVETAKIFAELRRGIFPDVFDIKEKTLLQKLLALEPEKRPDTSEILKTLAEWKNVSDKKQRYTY

[2] = tested on: 3T3442A cells; type: cell-based; conditions: one hour at 37EC
Description: A PKR peptide antagonist (50 μg) having the sequence […] (SEQ ID NO: 25) comprising a cell permeability subsequence (residues 1-16 of SEQ ID NO:25), a heme agglutinin-epitope tag subsequence (residues 17-25 of SEQ ID NO:25), and a PKR peptide antagonist subsequence (residues 26-46 of SEQ ID NO:25) was radiolabeled with [^125 I]-iodine by the chloramine-T method (Hunter, W. M. and Greenwood, F. C. Nature 194:495-496, 1962) and purified by size exclusion chromatography using BioGel P2 (BioRad, Inc.) 35 million CPM of radiolabeled PKR peptide was added to pre-confluent cultures of 3T3442A cells grown in medium containing 10% FBS. After 1 hour at 37° C., the media was aspirated and the cells were washed four times in phosphate buffered saline (PBS). Cells were removed from the culture dishes by scraping and collected by centrifugation (4EC, 750×g, 5 min). The wash buffer was removed and the cell pellet was dissolved in SDS-polyacrylamide gel buffer (Laemmli, Nature (London), 227:680-685, 1970). The sample was analyzed by SDS-tricine polyacrylamide gel electrophoresis using 4-20% gradient tricine-SDS gels and the radiolabeled peptide antagonist was visualized by autoradiography of dried gels. […]
The subcellular localization of the PKR peptide antagonist (SEQ ID NO:25) that had been internalized by 3T3442A cells was determined by confocal microscopy. […]

| Substance | binding signal (% inhibition of TAR complex) [1] | subcellular localization of internalized peptide (confocal microscopy, anti-HA) [2] |
| --- | --- | --- |
| poly(I)-poly(C) | 60 | – |
| AAVALLPAVLLALLAPYPYDVPDYAKKEAKNAAAKLAVEILNKEKK [SEQ ID NO:25] | – | obvious, intense localization of the epitope-tagged peptide to the cell cytoplasm |
